Assay results: article PMC5225433

Molecular target: EMILIN1 gC1q domain, wild type (recombinant)
Assay: SDS-PAGE without boiling; purified gC1q (WT or mutant), incubated or not with NE at 37 °C, Laemmli buffer added, loaded on 4-20% gels without boiling to keep the trimer, Coomassie staining; trimer to monomers

- stoichiometry N: 3
Substance: EMILIN1 gC1q domain, wild type (recombinant) (domain or fragment)
